Test results: patent US20050196844

Tested on: E. coli synthesized tau (352 residue isoform), non-phosphorylated

fyn tyrosine kinase (Upstate Biotechnologies)
in vitro kinase reaction, immunoblot with anti-PY18 and 4G10: fyn kinased tyr18 in vitro

src tyrosine kinase (Upstate Biotechnologies)
in vitro kinase reaction, immunoblot with anti-PY18 and 4G10: Identical results were observed for src.
